Test [1] addresses T1, Purified recombinant human CD26 (rhDipeptidyl peptidase IV), R&D Systems CAT# 1180-SE (human, UniProt P27487 29-766).
T1 construct: also called hu-CD26; soluble human CD26
Description: SPR (Biacore), IgG1 over CD26. The protocol: Fabs produced in E. coli as described below were diluted in PBS in a concentration of ˜0.5 μM for the assay. A typical recording included a 3 minute period of injection of the Fab followed by a period of 15 minutes of dissociation, and analysis was performed based on the raw data of the binding curves accordingly.
Analyses thereof were performed using Biacore® as described in Example 1, excepting the binding partners were the rhuMAbs noted above.
A general note: Surface plasmon resonance follows binding to a sensor surface in real time, without labels.

A further test addresses peptide 69 (human). In words: peptide microarray.
Another test has as its target peptide 16 (human). Description: peptide microarray.
The next test addresses peptide 125 (human). Description: peptide microarray.
A further test addresses peptide 121 (human). Description: peptide microarray.
The target of a further test is peptide 13 (human). In words: peptide microarray.

Experimental findings from patent US20090136523A1 (published 2009) are described below.

T1 sequence (P27487 29-766 limits assumed): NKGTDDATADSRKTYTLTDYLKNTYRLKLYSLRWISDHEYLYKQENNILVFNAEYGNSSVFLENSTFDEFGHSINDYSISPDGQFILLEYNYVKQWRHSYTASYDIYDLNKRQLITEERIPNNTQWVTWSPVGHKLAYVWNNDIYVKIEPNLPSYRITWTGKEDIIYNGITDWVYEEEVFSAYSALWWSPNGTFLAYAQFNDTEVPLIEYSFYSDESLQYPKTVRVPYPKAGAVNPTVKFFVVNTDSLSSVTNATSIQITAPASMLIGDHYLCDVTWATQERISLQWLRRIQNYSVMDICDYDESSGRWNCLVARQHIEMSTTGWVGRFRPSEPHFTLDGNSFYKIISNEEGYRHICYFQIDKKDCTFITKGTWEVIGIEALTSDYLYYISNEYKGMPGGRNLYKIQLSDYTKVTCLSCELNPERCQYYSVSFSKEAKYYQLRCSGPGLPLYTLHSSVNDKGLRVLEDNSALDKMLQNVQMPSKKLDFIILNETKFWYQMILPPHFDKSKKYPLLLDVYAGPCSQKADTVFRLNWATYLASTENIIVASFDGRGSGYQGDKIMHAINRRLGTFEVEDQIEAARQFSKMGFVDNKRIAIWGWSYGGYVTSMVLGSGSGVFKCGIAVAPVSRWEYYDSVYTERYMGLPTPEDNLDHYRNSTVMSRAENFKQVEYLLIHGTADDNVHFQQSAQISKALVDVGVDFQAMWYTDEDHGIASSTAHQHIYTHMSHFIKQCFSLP

B1: rhuMAb 411 (antibody, human IgG1, kappa, V domains shown)
VH: EVQLVESGAGVKQPGGTLRLTCTASGFSLTTYGVHWVRQAPGKGLEWVGVIWGDGRTDYDAAFMSRVTISKDTSKSTVYLQMNSLRAEDTAVYYCMRNRHDWFDYWGQGTTVTVSS
VL: DILLTQSPSSLSATPGERATITCRASQGIRNNLNWYQQKPGQAPRLLIYYSSNLQSGVPSRFSGSGSGTDFTLTISRLQPEDVAAYYCQQSIKLPFTFGSGTKVEIKR
notes: also called X411
On to B1, for which the koff – broadly, the rate constant with which the complex falls apart – in test [1] turned out to be 0.000108 s⁻¹. The kon (usually the rate constant with which the complex forms) in test [1] worked out at 485000 M⁻¹ s⁻¹. The Mean Signal Value came out at 2.45 with peptide 69 (human); 1.92 in the test with peptide 16 (human); 1.8 with peptide 125 (human); 2.08 with peptide 121 (human); 1.94 with peptide 13 (human).
